Drawing on patent publication US20120039915A1 (University of California, published 2012), this text covers binding result and Kd for four molecules.

Assay [1] has as its target T1, CD133 (human, UniProt O43490 20-865).
T1 construct: whole, on cells; also called CD133 molecule
T1 sequence (looked up): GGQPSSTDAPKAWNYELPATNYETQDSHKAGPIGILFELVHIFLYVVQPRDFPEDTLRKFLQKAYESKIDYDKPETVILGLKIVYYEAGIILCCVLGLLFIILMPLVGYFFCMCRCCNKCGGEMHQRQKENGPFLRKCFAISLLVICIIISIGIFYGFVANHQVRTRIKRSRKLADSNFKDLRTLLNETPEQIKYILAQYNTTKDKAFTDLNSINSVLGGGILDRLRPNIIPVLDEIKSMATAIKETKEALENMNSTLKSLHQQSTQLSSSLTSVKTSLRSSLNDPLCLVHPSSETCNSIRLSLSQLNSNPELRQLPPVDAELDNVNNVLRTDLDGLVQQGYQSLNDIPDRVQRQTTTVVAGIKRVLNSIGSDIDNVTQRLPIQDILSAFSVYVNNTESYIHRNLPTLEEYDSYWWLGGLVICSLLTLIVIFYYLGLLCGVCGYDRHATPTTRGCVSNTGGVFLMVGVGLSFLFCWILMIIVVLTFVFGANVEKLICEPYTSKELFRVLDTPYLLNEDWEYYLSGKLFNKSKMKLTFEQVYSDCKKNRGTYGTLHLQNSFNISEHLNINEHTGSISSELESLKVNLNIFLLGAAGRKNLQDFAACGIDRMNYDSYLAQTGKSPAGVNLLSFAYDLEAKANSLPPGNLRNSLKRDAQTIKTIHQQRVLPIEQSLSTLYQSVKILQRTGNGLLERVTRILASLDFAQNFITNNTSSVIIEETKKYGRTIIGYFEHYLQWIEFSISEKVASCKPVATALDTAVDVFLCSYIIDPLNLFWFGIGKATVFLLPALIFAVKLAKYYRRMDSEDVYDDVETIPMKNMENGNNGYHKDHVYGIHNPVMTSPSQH
The assay can be described thus: FACS, phage on Caco-2 cells. The method, then: FIG. 3 depicts the results of co-expression of the CD133 epitope and phage-bound antigens. FIG. 3A depicts FITC-labeled phage antibodies and biotin-labeled anti-CD133 mAb were studied on GBM sphere cells. A typical result from studies on GBMx-1 sphere cells is shown. Percentage of total cells is indicated for each quadrant. […] PE-conjugated control mouse IgG and anti-CD133 mAb were incubated with Caoa-2 cells and binding detected by FACS. […] Four tumor sphere cell-targeting phage (GB1, GB8, GH9 and GC4) were tested. Negative control: a non-binding phage. Positive control: a Caco-2 binding phage preparation. FIG. 3D depicts the results of antibody immunoprecipitation of Caco-2 lysates. Lane 1: immunoprecipitation with anti-CD133 mAb. Lane 2: immunoprecipitation with the GC4 antibody. All immunoprecipitation products were analyzed on a SDS-PAGE gel followed by Western blot with anti-CD133 antibody and horseradish peroxidase-conjugated anti-mouse secondary antibody. Arrow indicates CD133. Molecular weights (kd) are indicated.
Phage antibody binding to antigens other than CD133: Caco-2 cells that express high levels of CD133 were incubated with phage antibodies along with the positive control PE-conjugated anti-CD133 antibody at 4° C. for 1 h, washed twice with PBS, and bound phage detected by biotin-labeled anti-fd antibody followed by streptavidin-R-PE, and analyzed by FACS. For immunoprecipitation studies, 10⁵ Caco-2 cells were lysed in 1% NP40, 0.15 M NaCl, and 0.01 M sodium phosphate, pH 7.2, on ice for 2 h. Lysates were precleared and incubated with 50 μg/ml scFvs bearing a hexahistidine tag at 4° C. for 1 h, and captured onto Ni-NTA+ beads (Qiagen). […] All immunoprecipitation products were analyzed by 4-20% gradient SDS-PAGE, followed by Western blot with mouse anti-CD133 followed by horseradish peroxidase-conjugated goat anti-mouse antibody (Jackson ImmunoResearch) using ECL Plus™ (GE Healthcare).

Assay [2] deals with T2, antigen bound by the GC4 antibody on GBM tumor sphere cells (target antigen not determined).
T2 construct: also called GBM tumor spheres; GBM sphere cells
The experiment in a line: FACS on GBM tumor sphere cells at RT, MFI fitted (apparent dissociation constant). The procedure: FIG. 7A depicts the production of recombinant GC4 IgG. H: heavy chain. L: light chain. MW: molecular weight. […] Ctr: a non-binding human IgG1. […] FACS analysis was performed to determine binding of GC4 IgG1 (1 μg/ml) in the presence of the parental GC4 or four other scFvs (50 μg/ml each). Binding was detected by fluorescently labeled anti-human IgG antibody. Normalized mean fluorescence intensities were used to compare binding results. Error bars indicate standard deviations of duplicated experiments. *, P<0.05. […] MFI values were fitted using GraphPad. FIG. 7E depicts the binding constant of GC4 scFv to GBM tumor spheres. […] MFI values were fitted using GraphPad.
Affinity measurement: Varying concentrations of GC4 IgG1s were incubated with 10⁵ GBM cells at RT for 1 h in PBS containing 0.25% BSA. Bound IgG1s were detected by PE-conjugated goat anti-human antibody (Jackson ImmunoResearch) following incubation at RT for 30 min. Apparent dissociation constant was determined by FACS with mean fluorescence intensity (MFI) data fitted using GraphPad Prism (GraphPad Software). The apparent dissociation constant of GC4 scFv was measured similarly except that bound scFvs were detected by mouse anti-hexahistidine antibody (AbD Serotec/MorphoSys) followed by PE-conjugated goat anti-mouse antibody (Jackson ImmunoResearch).

The target in assay [3] is T1, CD133. The assay can be described thus: FACS, biotin-labelled GC4 scFv on Caco2 cells (CD133-high by paragraph 182); '-' means lack of significant binding. The method, then: For Table 1-6, biotin-labeled GC4 scFvs were tested for binding to a panel of human cell lines (all were tumor lines, except for BPH-1) by FACS. “+” indicates binding and “-” indicated lack of significant binding. Du-145 cells were derived from brain metastasis of prostate tumor.
A general note: A flow cytometer gives signals particle by particle.

B1: GB1 scFv (scFv)
scFv: QVQLVQSGGGLVKPGGSLRLSCAASGFTFSNAWMNWVRQAPGKGLEWVGRIKSKTDGGTTDYAAPVNGRFTISRDDSKNTLYLQMNSLKTEDTAVYSCTTENWGSVNWGQGTLVTVSSGGGGSGGGGSGGGGSNFMLTQPPSVSVAPGKTASLTCGYNIGTKSVHWYQQKPGQAPVVVVHDDSDRPSGIPERFSGSNSGTTATLTISRVEAGDEADYYCQAWDSISEEVVFGGGTKLTV
notes: On fd phage in the Caco-2 FACS; His-tagged soluble scFv in the immunoprecipitation; also called GB1 phage antibody; not shown: lette
Turning to B1, the binding result with CD133 [1] is “no binding”.

B2: GB8 scFv (scFv)
scFv: QVQLVESGGGLVQPGGSLRLSCAASGFTFSNYALTWVRQAPGKGLEWVSAISGSGGSTYYADSVKGRFTISRDTSKNTLYLQMNSLRAEDTAVYYCARGGYSYGPPFDYWGQGTLVTVSSGGGGSGGGGSGGGGSSELTQDPAVSVALGQTVRITCQGDSLRSYYASWYQQKPGQAPVLVIYGKNKRPSGIPDRFSGSSSGNTASLTITGAQAVDEADYHCNSRDSSGNHVVFGGGTKLTV
notes: His-tagged soluble scFv in the immunoprecipitation; also called GB8 phage antibody; not shown: lette
B2: the binding result with CD133 [1] is on record as “no binding”.

B3: GC4 scFv (scFv)
scFv: QVQLVESGGGLVQPGGSLRLSCAASGFTFGTYDMSWVRQAPGKGLEWVSGISGSGGSTYYADSVKGRFTISRDNSKNTVYLQMNSLRVEDTAVYYCARGGWYSDNWGQGTLVTVSSGGGGSGGGGSGGGGSSELTQDPAVSVALGQTVRITCQGGSLRSYYASWYQQKPGQAPLLVIYGENNRPSGIPDRFSGSSSGNTASLTITGAQAEDEADYYCHSRDSSGNHVVFGGGTKLTV
notes: Human scFv from a naive fd phage library; also called GC4 phage antibody; parental GC4 scFv; not shown: lette
With B3, the Kd in assay [2] came to 222 nM. The binding result in the assay with CD133 [3] was “no binding”.

B4: GH9 scFv (scFv)
scFv: QVQLQESGGGLVKPGGSLRLSCAASGFTFSSYSMNWVRQAPGQGLEWVSSISSRNSDIYYADSVRGRFTISRDNAKNSLYLQMNSLRAEDTAVYYCARDSSGYSSSPSDYWGQGTLVTVSSGGGGSGGGGSGGGGSNFMLTQPPSVSVAPGKTASLTCGGYNIGTKSVHWYQQKPGQAPVVVVHDDSDRPSGIPERFSGSNSGTTATLTISRVEAGDEADYYCQAWDSISEEVVFGGGTKLTV
notes: On fd phage in FACS; His-tagged soluble scFv in the immunoprecipitation; also called GH9 phage antibody; not shown: lette
On to B4, for which the binding result with CD133 [1] was “no binding”.
